Assay results as given in US20220098290A1 (JUNTENDO EDUCATIONAL FOUNDATION, published 2022).
Changes are numbered by the printed parent chain. Blank lines part the entries; values can stand above or below the binder they belong to.

Experiments:
[1] = molecular target: T1, Del 52 type mutant CALR protein (full-length) (human, UniProt P27797 18-417); assay: immunoblotting and ELISA on Del 52 and its alanine mutants
T1 construct: mature; also called 52-nucleotide deletion type; CALR Del 52
T1 sequence (looked up): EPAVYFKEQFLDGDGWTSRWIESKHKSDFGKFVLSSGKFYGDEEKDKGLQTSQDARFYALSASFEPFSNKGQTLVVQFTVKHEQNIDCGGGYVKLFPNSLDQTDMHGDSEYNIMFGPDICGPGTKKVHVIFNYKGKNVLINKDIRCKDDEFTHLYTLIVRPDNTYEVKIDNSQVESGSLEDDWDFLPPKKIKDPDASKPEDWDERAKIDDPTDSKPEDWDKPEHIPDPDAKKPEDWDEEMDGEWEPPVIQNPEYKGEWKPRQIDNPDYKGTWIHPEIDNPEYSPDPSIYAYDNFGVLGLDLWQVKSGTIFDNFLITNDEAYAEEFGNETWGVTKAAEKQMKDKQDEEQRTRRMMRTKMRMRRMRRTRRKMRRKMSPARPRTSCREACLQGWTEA
Protocol: It was verified that clone B3, C6, and G1 antibodies recognize the amino acid sequence used as an antigen on the mutant CALR protein. The reactivities of the respective antibodies against mutant CALR proteins each having alanine substituted for one amino acid at each position of the amino acids used as the antigen and the amino acids around it were evaluated by immunoblotting (FIG. 13A) and ELISA (FIG. 13B).
The Del 52 type mutant CALR proteins each having alanine (A) substituted for one amino acid at each position of the amino acids in the region from the 367th threonine (T) to the 378th arginine (R) or the protein not having substitution were expressed in HEK 293T cells, and culture supernatants containing secreted mutant CALR proteins were prepared by centrifugation (1,600 g×5 min, 4° C.). The resulting protein solutions were each heat-treated in the presence of SDS and a reducing agent, then developed on a gel by SDS polyacrylamide electrophoresis, electrically transferred on a PVDF membrane, and reacted with a TBS-T solution containing 5% skimmed milk at room temperature for 1 hour, followed by reaction with a 5% BSA/TBS-T solution containing a peroxidase-labeled clone B3, C6, or G1 antibody or a mouse anti-CALR antibody (Abcam plc., Cat #ab22683) at 4° C. overnight. The PVDF membrane reacted with the mouse anti-CALR antibody was washed with a TBS-T solution and was then reacted with a 5% skimmed milk/TBS-T solution containing a peroxidase-labeled anti-mouse IgG antibody (Jackson Immuno Research Inc., Cat #115-035-003) at room temperature for 1 hour. Subsequently, all of the PVDF membranes were washed with a TBS-T solution and were then reacted with a peroxidase luminescence reagent (Thermo Fisher Scientific K.K., Cat #34094). The resulting signals were detected using a FUSION image pickup apparatus (manufactured by Vilber-Lourmat S.A.).

[2] = molecular target: T2, peptide having cysteine at the amino-terminal of the amino acid sequence (RRMMRTKMR) included in SEQ ID NO: 1; assay: SPR
T2 peptide: CRRMMRTKMR

[3] = molecular target: T3, peptide having cysteine at the amino-terminal of the amino acid sequence (RRMMRTKMR) included in SEQ ID NO: 1; assay: SPR (Biacore T200), clone B3 antibody immobilised, peptide at 1.25-20 nM
T3 construct: Synthetic peptide, analyte in SPR; also called antigen used for production of the antibody
T3 peptide: CRRMMRTKMR
Protocol: Sensor chips (GE Healthcare, Cat #BR100530) for surface plasmon resonance analysis were loaded on a surface plasmon resonance analyzer Biacore T200 (GE Healthcare) and were equilibrated with an HBS-EP buffer (GE Healthcare, Cat #BR100669). Clone B3 antibody adjusted to a concentration of 10 μg/mL with Acetate 5.5 (GE Healthcare, Cat #BR100352) was immobilized using an Amine coupling kit (GE Healthcare, Cat #BR100050) at an immobilized amount of 200 RU. Subsequently, surface plasmon resonance was measured using a peptide having cysteine at the amino-terminal of the amino acid sequence ([…]) included in SEQ ID NO: 1 adjusted to concentrations of 20, 10, 5, 2.5, and 1.25 nM with an HBS-EP buffer, and the dissociation constant was acquired with Biacore T200 Evaluation Software.

- binding result [1]: binds
B1: clone C6 antibody (antibody, V domains shown)
VH: QVQLQQSGAELVKPGSSVKISCKASGYTFTSYFVHWIKQQPGDGLEWIGWIYPGDGDTEYNHKFNGKSTLTADRSSSTAYMQLSSLTSEDSAVYFCARGNYYDGREVMDAWGQGASVTVSS
VL: DVVLTQTPPTLSATIGQSVSISCRSSQSLLDSDGETYLNWLLQRPGQSPQLLIYSVSNLESGVPNRFSGSGSETDFTLKISGMEAEDLGVYYCMQATHGPYTFGAGTKLELK
notes: Rat monoclonal antibody purified from a hybridoma, detected with anti-rat IgG; also called rat clone C6 antibody

- binding result [1]: binds
B2: clone G1 antibody (antibody, V domains shown)
VH: B1 VH with H62Q, S68A
VL: B1 VL with S48C, M83V, A96G
notes: Rat monoclonal antibody purified from a hybridoma, detected with anti-rat IgG; also called rat clone G1 antibody

- Kd [2]: 0.855 nM
- binding result [1]: binds
- binding result [3]: binds
B3: clone B3 antibody (antibody, V domains shown)
VH: QVQLQQSGAELVKPGSSVKISCKASGYTFTRNFIHWIKQQPGNGLEWIGWIFPGDGDTEYNQKFNGKATLTADKSSSTAYMQLSSLTSEDSAVYFCARGNYNYEYFDYWGQGVMVTVSS
VL: DIQMTQSPASLSASLGETVSIECLASEDIYSYLAWYQQKPGKSPQLLIFAANRLQDGVPSRFSGSGSGTQFSLKISGMQPEDEGDYFCLQGSKFPYTFGPGTKLELN
notes: Rat monoclonal antibody purified from a hybridoma (WKY/Izm rat x mouse SP2 myeloma), detected with anti-rat IgG; also called rat clone B3 antibody
